The data set in a line: soluble on expression in E. coli; label from the status in PepcDB or PDB records.
Take “MSDLLDTVRGLAKKTDSKILMVVLDGVGGLPLTVNGDTELATARTPNLDALAQESQLGQLELVGAGITPGSGPGHLSLFGYDPLKYVVGRGALSAVGIGVKLNRGDVAVRGNFATLGAGRLILDRRAGRPSDEKNAEIVAKLRAAIPEIDGVAVEVYTESEHRFVVVFRAPEGQPLGANISDVDPQVTGVEPKTAIANDPSSEVTAGLINTFVARAEVALADEPQVNGVLFRGYSDVPHFPSFEDAYQLKAACIASYPMYKGLASLVGMDVLPVEGHEDALEGKVKALRENWAKYDFFYFHIKKTDSTGEDGDFAEKVHKIELFDELLPQLLELQPDVIAVVGDHSTPSKLKSHSWHPVPLLIRSNYGRRDPAQRYTEEEAARGTLGLRHGPDLMPLLMANALKLNKYGALEHHHHHH”: the “soluble on expression in E. coli” value is recorded as “soluble”.
Next, “MSDSASNTENSIQIEIFPSRILSPETAQKLLVELSQVDGILRVMIQGNRLPEKVGYGPGTGEKVEHPLRKPIQIGGQVIELRVSVGRIRLEVLNAEVKENVRAVCEKMLPFSFEFREGHFLRRKPTVTDYAKLGPEADPRLLGMVDPKAKINQLVFILEHHHHHH”: “not soluble”; “MSDTQQVPAIVILGQGALDTARRVQARYPGALVHGLAGRVEADRSYTDFGDTLRELYCADRPIVALCAAGIVIRSLAPLLQRKGAEPPVLALAEDGSAVVPLLGGLAGVNRLAREIGEVLAVAPAITTSGELRFGTCVLNPPAGYVLADLEQGKRFVADLLGGQPVRVEGAADWLDAARLPRDPEAALAIHVTPSARAPRAEELLIHPRCVLAALEPADAAADAVRQALVDAGLAAAALGGLLADSARMADPRLQAAADALGVPLRFLPQADPAARLRQALPAAEQVGDRLAVAAAPLAMDRIGQRRGRLTVIGLGPGCAELMVPAARRALDEAEDILGYQTYVDMAGPFRAGQVLHGSDNREELQRARHAFELAATGRAVVLVSSGDPGVFAMAAAVLEALHGAGEPAWDAVELRIFPGVSAALATAARAGAPLGHDFCVLSLSDNLKPWEVIERRLDLAGAADLAMAFYNPISRARPWQLGRALEIVARHRSPQTLVVLGRDIGRPGERLLRTTLGELRAEQVDMRTLVIIGSSTTRSFPRADGEAWVYTPRWYPSE”: “not soluble”; “MSDVAVAETPAVKTPTKASKATKAKATKIPKVKVVAAHPPFINMITEAVSNLKDRKGSSRVAIFKFITAKYTLGDQVNKTNAHLRSALKKGVVSKVLVQTNGIGANGRFRLAVAEKPPAVKKAATGEQKVMKTVAKKAVSGDKAKKTVAKKTGDKVKKVKSPKRIAKPAVKKVTKKAAAPTKSAANETAPKKAAATEAAPKKAAVTKAATKKTPARKAVGTAPKA”: “soluble”.
Next, “MSDYLSVSSLTKYLKLKFDRDPYLERVYLTGQVSNFRRRPNHQYFSLKDEKAVIQATMWSGIYRKLGFELEEGMKINVIGRVQLYEPSGSYSIIIEKAEPDGIGALAVQFEQLKKKLAEAGYFDDRHKQRLSQFVKKIGVVTSPSGAVIRDIITTVSRRFPGVDILLFPTKVQGEGAAQEVADNIRLANERTDLDLLIVGRGGGSIEDLWAFNEEIVVQAIFESHLPIISSVGHETDTTLADFAADRRAATPTAAAELATPVTKADLLAFLKERQMRSYQAVMRLIRQKDEQVKKLQRSVIFRQPERLYDAYVQKLDHLRTHLLTKVRQVYDVYDSKEHLLRQRLLSFNLSGCIQRYQAQLKQDQRLLLSHMSSQYDSKLARFEKAQDALLSLDTTRIVARGYAIVQKDNHIIQSTQQIKKGDRLHLEMKDGQVQVEVENVKQEENI”: “not soluble”; “MSDYQVLLYYKYTTIDDPETFAKEHLAACKEMELKGRILVATEGINGTVSGTVEATNKYMDYMANDARFADMVFKIDAADAHAFKKMHVRPRAEIVSLSLEEDVNPLEVTGTYLEPSEFREALLDEDTVILDARNDYEFDIGHFRGAVRPDIQNFRELPGWIEDNREQLADKKIVTYCTGGIRCEKFSGWLKTAGFDDVSQLHGGIATYGKNEETKGELWDGQMYVFDERIAVPINQVNPTIVGKDYFDGTPCERYINCANPYCNKQILASIENEKKYLRSCSHDCRVHPANLYTKNLSKEEFTERLQAIDETLPEMVQ”: “not soluble”.
As for “MSEAAHSGAAPADLVELGRIASAYGVKGWVKVQPHSAQAEVLRTVSHWWLTRPAPQAARGVVASVPRAYQVLQARVHGGAVVAQLAGIDDRDQAEALRGCLVQAARSAFPAPADDEYYWVDLIGCALYSDADGESRLLGVVDEVFDNGAHAVLKVLRQQLQPGQPGPVPLVDPKGRPLEELVPFVRAHIRHVDLAARRIDSDWPLDYLEHHHHHH”, the “soluble on expression in E. coli” value is “soluble”.
For the sequence “MSEAIIAKKAEQVELIAEKMKAAASIVIVDSRGLTVDQDTVLRRSLRESGVEFKVIKNSILTRAAEKAGLDELKDVFVGPSAVAFSNEDVIAPAKVINDFTKTADALEIKGGAIEGAVSSKEEIQALATLPNREGMLSMLLSVLQAPVRNVAYAVKAVAENKEGAA”, the “soluble on expression in E. coli” value is on record as “not soluble”.
Next, “MSEDKDMKNRNAMTIKRFVDVEEDGEHGGSGEFAELFQESIKQHRVGEVVTGKVVHISNEFVLVDIGYKSEGCIAIDEFLDEDGNLTVKVGDEVKALFERKENQKGYAVLSRRKAERLAVWDVIDEAGGEGGIIEGKITGKVKGGLTVDIGVQAFLPASQVDLRPGGNLDKYIGTTDRFKVLKLNKKRGNIVLSRRVLMEEERESSRKETLATLAEGQVREGVVKNITDYGAFVDIGGVDGLLHVTDMSWGRLGHPSEILKPGDKLNVKVLKYDQEKGKISLGLKQVTPDPWVSVEQKYNQGDRVKGKVVSLTDYGAFIALEDGVEGLVHVSEMSWTRRLRHPSEILTVGDEVETVVLGVDMGNRRISLGLKQVQVNPWTQLEEKYPVGTKLEGQIKSITDFGVFIGIEEGIDGLVHVSDISWTKRIKHPGEVFTKGQTVQAVVLNIDPENERLSLGIKQLLLDPWSEIPVKYRPGTRVHGKVTSVTDFGVFLEIEEGIEGLIHVSELSREKVASPKEFTNVGDELDAVVLSVDESEKKIALSIKSLQMAAEKAEIESYMQAQGEATSNLGELLKVGFRKNGDGNDLEHHHHHH”: “not soluble”; “MSEELSGVIIVLHKELSCRKEITDLQEISIALPDLMLSPKSKIVSDPASSKIDLNDRTTCSAEPNLFFVIFLSKNLNFSSKVFLSAVNNKSFSIQTRIT”: “not soluble”.
Consider “MSEHQSLPAPEASTEVRVAIVGVGNCASSLVQGVEYYYNADDTSTVPGLMHVRFGPYHVRDVKFVAAFDVDAKKVGFDLSDAIFASENNTIKIADVAPTNVIVQRGPTLDGIGKYYADTIELSDAEPVDVVQALKEAKVDVLVSYLPVGSEEADKFYAQCAIDAGVAFVNALPVFIASDPVWAKKFTDARVPIVGDDIKSQVGATITHRVLAKLFEDRGVQLDRTMQLNVGGNMDFLNMLERERLESKKISKTQAVTSNLKREFKTKDVHIGPSDHVGWLDDRKWAYVRLEGRAFGDVPLNLEYKLEVWDSPNSAGVIIDAVRAAKIAKDRGIGGPVIPASAYLMKSPPEQLPDDIARAQLEEFIIG”, for which the “soluble on expression in E. coli” value was “soluble”.
Next, “MSEIKTDDPKRGIKLRGADKTARIPIKVVPLQEKLKKPEWIRAKLPSRKFFEIKDILREQKMHTVCEEASCPNIGECFSKGTATFMIMGDICTRRCPFCDVGHGRPNMLDPDEPRNLAESVKAMNLRYVVITSVDRDDLRDGGAQHFADCIKAIRETSPNTKIEILVPDFRGRLDIALKILAETPPDVMNHNLETHPSLYRKARPGANYQHSLDLLKRYKEMMPHIPTKSGIMVGLGETDEDVREIMRDMRAHNIEMITIGQYLQPSDGHLPVLRYVTPEQFKIFEKEAYELGFSNAAIGAMVRSSYHADEQAAEALRESHGGCGHH”: “not soluble”; “MSEILFINGKVRFPITIDPTVWIFDDRKVDLTTYFDETRENTSELETYLKNTSEHWDREIRDGAAFPPIQQSVKKYKKEQLITGTFGIPFHPFLANAEILEDATQVEIETVDHTMTLPLETVKNAILGFSKEGKPLKEDGPVHLYFNDGSNQQNPIRNIRKFTII”: “not soluble”; “MSEKTFLVEIGTEELPPKALRSLAESFAANFTAELDNAGLAHGTVQWFAAPRRLALKVANLAEAQPDREIEKRGPAIAQAFDAEGKPSKAAEGWARGCGITVDQAERLTTDKGEWLLYRAHVKGESTEALLPNMVATSLAKLPIPKLMRWGASDVHFVRPVHTVTLLLGDKVIPATILGIQSDRVIRGHRFMGEPEFTIDNADQYPEILRERGKVIADYEERKAKIKADAEEAARKIGGNADLSESLLEEVASLVEWPVVLTAKFEEKFLAVPAEALVYTMKGDQKYFPVYANDGKLLPNFIFVANIESKDPQQIISGNEKVVRPRLADAEFFFNTDRKKRLEDNLPRLQTVLFQQQLGTLRDKTDRIQALAGWIAEQIGADVNHATRAGLLSKCDLMTNMVFEFTDTQGVMGMHYARHDGEAEDVAVALNEQYQPRFAGDDLPSNPVACALAIADKMDTLAGIFGIGQHPKGDKDPFALRRAALGVLRIIVEKNLNLDLQTLTEEAVRLYGDKLTNANVVDDVIDFMLGRFRAWYQDEGYTVDTIQAVLARRPTRPADFDARMKAVSHFRTLEAAAALAAANKRVSNILAKSDEVLSDRVNASTLKEPEEIKLAMQVVVLRDKLEPYFAEGRYQDALVELAELREPVDAFFDKVMVMVDDKELRLNRLTMLEKLRELFLRVADISLLQ”: “not soluble”.
Take “MSELLEKAERLKTASQTLAMLSAEEKNAALEQIAQTLDRERAFILQENEKDMAQGCKQGLSPALLDRLQLTNERLDQIIDGVRQVASLPDPVGEIIAEWTRPNGLRIQTVRVPLGVIGMVYEARPNVTVDAASLCLKTGNAVLLRGSTSALHSNKALVRVMKEALRTTTVPETAIELLEDTSRETAQHMFRLNEYLDVLIPRGGAGLIRSVVENATVPVLETGVGNCHIFIDESAERQMAIDIVLNAKLQRPSVCNAVETVLIHERWPYADDLLETLHARGVELRGDQRLASAHPFVSEATEDDWYTEYLAPILAVKLVADVDEAIGHIRRYGTKHSEAIITENEANVRRFFQGVDAAVLYHNASTRFTDGEQFGYGAEIGISTQKLHARGPMGLVAITTTKSLVYGTGQIRE”: the “soluble on expression in E. coli” value was “not soluble”.
For the sequence “MSEMTKTPTHYRLLSTLKAMGPYLREGQCSERFYLFDCLASCVNDKKSPEKREFWGWWMELTQNEQEMSACYHIGRYTLAGDWVAEAIPESAQAEVNHTQAEFHKKLVKTLRERFEISVTVSTESAPFA”, the “soluble on expression in E. coli” value is given as “not soluble”.
For “MSEPLLIARTPDTELFLLPGMANRHGLITGATGTGKTVTLQKLAESLSEIGVPVFMADVKGDLTGVAQAGTVSEKLLARLKNIGVNDWQPHANPVVVWDIFGEKGHPVRATVSDLGPLLLARLLNLNDVQSGVLNIIFRIADDQGLLLLDFKDLRAITQYIGDNAKSFQNQYGNISSASVGAIQRGLLSLEQQGAAHFFGEPMLDIKDWMRTDANGKGVINILSAEKLYQMPKLYAASLLWMLSELYEQLPEAGDLEKPKLVFFFDEAHLLFNDAPQVLLDKIEQVIRLIRSKGVGVWFVSQNPSDIPDNVLGQLGNRVQHALRAFTPKDQKAVKAAAQTMRANPAFDTEKAIQELGTGEALISFLDAKGSPSVVERAMVIAPCSRMGPVTEDERNGLINHSPVYGKYEDEVDRESAYEMLQKGFQASTEQQNNPPAKGKEVAVDDGILGGLKDILFGTTGPRGGKKDGVVQTMAKSAARQVTNQIVRGMLGSLLGGRRR”, the “soluble on expression in E. coli” value was “soluble”.
Next, “MSEQLVTPENVTTKDGKINLLDLNRQQMREFFKDLGEKPFRADQVMKWMYHYCCDNFDEMTDINKVLRGKLKEVAEIRAPEVVEEQRSSDGTIKWAIAVGDQRVETVYIPEDDRATLCVSSQVGCALECKFCSTAQQGFNRNLRVSEIIGQVWRAAKIVGAAKVTGQRPITNVVMMGMGEPLLNLNNVVPAMEIMLDDFGFGLSKRRVTLSTSGVVPALDKLGDMIDVALAISLHAPNDEIRDEIVPINKKYNIETFLAAVRRYLEKSNANQGRVTIEYVMLDHVNDGTEHAHQLAELLKDTPCKINLIPWNPFPGAPYGRSSNSRIDRFSKVLMSYGFTTIVRKTRGDDIDAACGQLAGDVIDRTKRTLRKRMQGEAIDIKAV”: “soluble”.
